Data reported in publication PMC5775257.

Tested on: Roquin-1 (aa 2-441);NUFIP2 (aa 255-411) (mouse;human)
Assay: EMSA
Details: 10 mM HEPES pH 7.5, 150 mM NaCl, 2 mM MgCl2, 4% glycerol, tRNA 30 ug/mL, 5 nM labeled RNA, 30 min at 25 °C; native 4% TBE PAGE

Substance | Kd
ICOS 3'-UTR tandem cis-element (nt 2183-2271) | 11.3 nM
Ox40 3'-UTR tandem element (nt 1064-1126) | 10.7 nM
